pIC50: −log10 of the molar value.

Experiment [1] has as its target HLA-A*02:06. As to the kind of experiment: IEDB peptide-MHC binding, cellular MHC/competitive/fluorescence; ≥ and ≤ were set here for values at or beyond the usual limits of such assays.
For experiment [2], the target named is HLA-A*02:03. The experiment is described as above.
Experiment [3] addresses HLA-A*68:02. Described as above.
The target in experiment [4] is HLA-A*02:01. Described as above.
The target in experiment [5] is HLA-A*02:02. As to the kind of experiment: IEDB peptide-MHC binding, purified MHC/competitive/radioactivity; ≥ and ≤ were set here for values at or beyond the usual limits of such assays.
For experiment [6], the target named is HLA-A*02:02. As to the kind of experiment: IEDB peptide-MHC binding, cellular MHC/competitive/fluorescence; ≥ and ≤ were set here for values at or beyond the usual limits of such assays.
The target of experiment [7] is HLA-A*02:06. As to the kind of experiment: IEDB peptide-MHC binding, purified MHC/competitive/radioactivity; ≥ and ≤ were set here for values at or beyond the usual limits of such assays.
Experiment [8] addresses HLA-A*68:02. The experiment is described as above.
Experiment [9] concerns the target HLA-A*02:01. The experiment is described as above. The settings on record: source organism: Vaccinia virus WR.
Setting [10] is: source organism: Mammarenavirus machupoense.
Where [11] appears, read: source organism: Vaccinia virus WR.
[12] abbreviates: source organism: Influenza A virus.

The pIC50 is the IC50 on a negative log10 scale, so that one unit is a factor of ten. As for LNVSYLCHL, the pIC50 is 4.86 in experiment [1] (setting [10]); 5.15 in experiment [2] (setting [10]); 4.69 in experiment [3] (setting [10]); 5.20 in [4] (setting [10]); 6.53 in experiment [5] (setting [10]).

As to LVIRNEVNDT, the pIC50 in experiment [2] (setting [11]) was 4.82; in experiment [6] (setting [11]) it was 5.26; in [4] (setting [11]) it was 4.90; in experiment [7] (setting [11]), 5.66; in experiment [8] (setting [11]) it was 6.07.

In the case of NAILHNIYRL, the pIC50 in experiment [2] (setting [11]) is 4.99; in experiment [6] (setting [11]), 5.25; in [7] (setting [11]) it was 6.24; in experiment [8] (setting [11]), 6.14; in experiment [9] it was 6.27.

Take NLYISDYKM: the pIC50 was 4.96 in experiment [1] (setting [11]); 4.60 in [2] (setting [11]); 4.83 in experiment [3] (setting [11]); 5.21 in [4] (setting [11]); 5.55 in [5] (setting [11]).

In the case of NTVSSFQV, the pIC50 in experiment [2] (setting [12]) is 4.22; in [6] (setting [12]), at most 4.15; in [4] (setting [12]), 4.28; in experiment [7] (setting [12]) it was 5.35; in [8] (setting [12]) it was 6.25.

As to NVLSIAPI, the pIC50 in [2] (setting [12]) was 4.76; in experiment [6] (setting [12]), 4.40; in experiment [4] (setting [12]), 5.07; in [7] (setting [12]), 5.63; in experiment [8] (setting [12]) it was 5.88.

As for PLPCQLMYAL, the pIC50 in experiment [1] (setting [11]) was 5.01; in experiment [2] (setting [11]) it was 5.06; in experiment [3] (setting [11]), 4.51; in [4] (setting [11]), 4.89; in experiment [5] (setting [11]), 6.79.

As to QAKKPEVRI, the pIC50 is 4.38 in [1] (setting [11]); 5.18 in experiment [2] (setting [11]); at most 4.15 in experiment [3] (setting [11]); 4.40 in experiment [4] (setting [11]); 6.13 in experiment [5] (setting [11]).

QTVDFTDCRT: the pIC50 was 4.27 in experiment [2] (setting [11]); 4.52 in experiment [6] (setting [11]); 4.40 in experiment [4] (setting [11]); 5.44 in experiment [7] (setting [11]); 7.48 in experiment [8] (setting [11]).

In the case of SAFDERRNRYL, the pIC50 is 4.46 in experiment [1] (setting [12]); 5.29 in experiment [2] (setting [12]); 5.23 in [3] (setting [12]); 4.75 in [4] (setting [12]); 5.89 in [5] (setting [12]).

As to SAGFTATICL, the pIC50 was 4.70 in experiment [2] (setting [11]); 5.16 in experiment [6] (setting [11]); 4.98 in [4] (setting [11]); 5.62 in experiment [7] (setting [11]); 5.41 in experiment [8] (setting [11]).

For SANMDWRSLT, the pIC50 in [1] (setting [11]) was 4.32; in [2] (setting [11]), 4.95; in experiment [3] (setting [11]), 4.81; in experiment [4] (setting [11]), 4.25; in [5] (setting [11]) it was 5.75.

With STTGEWPLI, the pIC50 in experiment [2] (setting [11]) is 4.35; in experiment [6] (setting [11]) it was 4.68; in experiment [4] (setting [11]), 5.07; in [7] (setting [11]), 5.91; in [8] (setting [11]), 6.22.

Turning to TTENAAYQV, the pIC50 was 4.29 in experiment [2] (setting [11]); at most 4.15 in [6] (setting [11]); 4.53 in [4] (setting [11]); 6.35 in [7] (setting [11]); 6.73 in experiment [8] (setting [11]).

With TVDFTDCRT, the pIC50 in experiment [2] (setting [11]) is 4.57; in experiment [6] (setting [11]), 5.01; in experiment [4] (setting [11]) it was 4.47; in experiment [7] (setting [11]) it was 6.47; in [8] (setting [11]) it was 6.21.

As for VATFRDMLL, the pIC50 in [1] (setting [11]) is 5.11; in experiment [2] (setting [11]), 5.00; in experiment [3] (setting [11]), 5.23; in experiment [4] (setting [11]), 5.05; in experiment [5] (setting [11]), 5.60.

VAVNKSNKPL: the pIC50 in experiment [1] (setting [11]) was 4.75; in [2] (setting [11]) it was 5.29; in [3] (setting [11]), 5.03; in experiment [4] (setting [11]), 4.35; in experiment [5] (setting [11]), 5.56.

For the sequence VIVVPVIDRL, the pIC50 is 4.96 in [1] (setting [11]); 4.23 in experiment [2] (setting [11]); 4.50 in experiment [3] (setting [11]); 4.83 in [4] (setting [11]); 5.34 in experiment [5] (setting [11]).

As to VVECLTVPNI, the pIC50 is 4.71 in experiment [2] (setting [11]); 5.07 in experiment [6] (setting [11]); 6.52 in experiment [7] (setting [11]); 5.43 in [8] (setting [11]); 5.37 in experiment [9].

As for VVIVENDNV, the pIC50 in [2] (setting [11]) was 4.42; in experiment [6] (setting [11]), 4.88; in [4] (setting [11]), 4.46; in [7] (setting [11]), 5.37; in [8] (setting [11]), 6.01.

For the sequence YLSKEDRIIT, the pIC50 in experiment [1] (setting [11]) was 4.31; in experiment [2] (setting [11]), 5.25; in experiment [3] (setting [11]), 4.67; in [4] (setting [11]) it was 4.93; in experiment [5] (setting [11]), 5.89.

For YTGGYDVSL, the pIC50 in [1] (setting [11]) is 4.69; in experiment [2] (setting [11]) it was 5.22; in [3] (setting [11]), 5.18; in experiment [5] (setting [11]) it was 5.70; in experiment [9] it was 5.43.
